From patent US20230002480A1

Key:
Assay in all cases: cell-based or functional assay
[1] = target: HIV-1 Env of pseudovirus Ce2010_F5 (HIV-1)
[2] = target: HIV-1 Env of pseudovirus C4118.c09 (HIV-1)
[3] = target: HIV-1 Env of pseudovirus 6244_13_B5_4576 (HIV-1)
[4] = target: HIV-1 Env of pseudovirus 1394C9G1(Rev-) (HIV-1)
[5] = target: HIV-1 Env of pseudovirus C3347.c11 (HIV-1)
[6] = target: HIV-1 Env of pseudovirus CNE30 (HIV-1)
[7] = target: HIV-1 Env of pseudovirus CNE20 (HIV-1)
[8] = target: HIV-1 Env of pseudovirus 1054_07_TC4_1499 (HIV-1)
[9] = target: HIV-1 Env of pseudovirus CAP45.2.00.G3 (HIV-1)
[10] = target: HIV-1 Env of pseudovirus ZM109F.PB4 (HIV-1)
[11] = target: HIV-1 Env of pseudovirus CNE58 (HIV-1)
[12] = target: HIV-1 Env of pseudovirus R3265.c06 (HIV-1)
[13] = target: HIV-1 Env of pseudovirus SC422661.8 (HIV-1)
[14] = target: HIV-1 Env of pseudovirus 62357_14_D3_4589 (HIV-1)
[15] = target: HIV-1 Env of pseudovirus BJOX010000.06.2 (HIV-1)
[16] = target: HIV-1 Env of pseudovirus BJOX025000.01.1 (HIV-1)
[17] = target: HIV-1 Env of pseudovirus T257-31 (HIV-1)
[18] = target: HIV-1 Env of pseudovirus Ce0682_E4 (HIV-1)
[19] = target: HIV-1 Env of pseudovirus X1193_c1 (HIV-1)
[20] = target: HIV-1 Env of pseudovirus 0260.v5.c36 (HIV-1)
[21] = target: HIV-1 Env of pseudovirus C1080.c03 (HIV-1)
[22] = target: HIV-1 Env of pseudovirus Du156.12 (HIV-1)
[23] = target: HIV-1 Env of pseudovirus Du422.1 (HIV-1)
[24] = target: HIV-1 Env of pseudovirus ZM214M.PL15 (HIV-1)
[25] = target: HIV-1 Env of pseudovirus THRO4156.18 (HIV-1)
[26] = target: HIV-1 Env of pseudovirus Du172.17 (HIV-1)
[27] = target: HIV-1 Env of pseudovirus P0402_c2_11 (HIV-1)
[28] = target: HIV-1 Env of pseudovirus 246F C1G (HIV-1)
[29] = target: HIV-1 Env of pseudovirus T251-18 (HIV-1)
[30] = target: HIV-1 Env of pseudovirus 191955_A11 (HIV-1)
[31] = target: HIV-1 Env of pseudovirus Q842.d12 (HIV-1)

N49P7.1 (antibody)
neutralization IC50 [1]: 0.055 µg/mL | neutralization IC80 [1]: 0.208 µg/mL | neutralization MPI [1]: 100 | neutralization IC50 [2]: 0.048 µg/mL | neutralization IC80 [2]: 0.216 µg/mL | neutralization MPI [2]: 100 | neutralization IC50 [3]: 0.184 µg/mL | neutralization IC80 [3]: 0.493 µg/mL | neutralization MPI [3]: 100 | neutralization IC50 [4]: 4.37 µg/mL | neutralization IC80 [4]: 30.9 µg/mL | neutralization MPI [4]: 88 | neutralization IC50 [5]: 0.048 µg/mL | neutralization IC80 [5]: 0.161 µg/mL | neutralization MPI [5]: 100 | neutralization IC50 [6]: 0.307 µg/mL | neutralization IC80 [6]: 1.01 µg/mL | neutralization MPI [6]: 100 | neutralization IC50 [7]: 0.079 µg/mL | neutralization IC80 [7]: 0.224 µg/mL | neutralization MPI [7]: 100 | neutralization IC50 [8]: 0.627 µg/mL | neutralization IC80 [8]: 2.98 µg/mL | neutralization MPI [8]: 100 | neutralization IC50 [9]: 0.086 µg/mL | neutralization IC80 [9]: 0.567 µg/mL | neutralization MPI [9]: 100 | neutralization IC50 [10]: 0.055 µg/mL | neutralization IC80 [10]: 0.199 µg/mL | neutralization MPI [10]: 100 | neutralization IC50 [11]: 0.049 µg/mL | neutralization IC80 [11]: 0.107 µg/mL | neutralization MPI [11]: 100 | neutralization IC50 [12]: 0.059 µg/mL | neutralization IC80 [12]: 0.328 µg/mL | neutralization MPI [12]: 100 | neutralization IC50 [13]: 0.125 µg/mL | neutralization IC80 [13]: 0.417 µg/mL | neutralization MPI [13]: 100 | neutralization IC50 [14]: 0.028 µg/mL | neutralization IC80 [14]: 0.15 µg/mL | neutralization MPI [14]: 100 | neutralization IC50 [15]: 0.132 µg/mL | neutralization IC80 [15]: 0.623 µg/mL | neutralization MPI [15]: 100 | neutralization IC50 [16]: 0.057 µg/mL | neutralization IC80 [16]: 0.378 µg/mL | neutralization MPI [16]: 100 | neutralization IC50 [17]: 0.209 µg/mL | neutralization IC80 [17]: 1.04 µg/mL | neutralization MPI [17]: 100 | neutralization IC50 [18]: 0.026 µg/mL | neutralization IC80 [18]: 0.099 µg/mL | neutralization MPI [18]: 100 | neutralization IC50 [19]: 0.035 µg/mL | neutralization IC80 [19]: 0.144 µg/mL | neutralization MPI [19]: 100 | neutralization IC50 [20]: 0.497 µg/mL | neutralization IC80 [20]: 1.51 µg/mL | neutralization MPI [20]: 100 | neutralization IC50 [21]: 0.144 µg/mL | neutralization IC80 [21]: 1.05 µg/mL | neutralization MPI [21]: 100 | neutralization IC50 [22]: 0.045 µg/mL | neutralization IC80 [22]: 0.131 µg/mL | neutralization MPI [22]: 100 | neutralization IC50 [23]: 3.76 µg/mL | neutralization IC80 [23]: 15.7 µg/mL | neutralization MPI [23]: 93 | neutralization IC50 [24]: 0.257 µg/mL | neutralization IC80 [24]: 0.853 µg/mL | neutralization MPI [24]: 100 | neutralization IC50 [25]: 3.07 µg/mL | neutralization IC80 [25]: 12.6 µg/mL | neutralization MPI [25]: 98 | neutralization IC50 [26]: 0.185 µg/mL | neutralization IC80 [26]: 0.748 µg/mL | neutralization MPI [26]: 100 | neutralization IC50 [27]: 0.029 µg/mL | neutralization IC80 [27]: 0.115 µg/mL | neutralization MPI [27]: 100 | neutralization IC50 [28]: 0.049 µg/mL | neutralization IC80 [28]: 0.165 µg/mL | neutralization MPI [28]: 100 | neutralization IC50 [29]: 0.229 µg/mL | neutralization IC80 [29]: 0.794 µg/mL | neutralization MPI [29]: 100 | neutralization IC50 [30]: 1.99 µg/mL | neutralization IC80 [30]: 10.1 µg/mL | neutralization MPI [30]: 98 | neutralization IC50 [31]: 0.028 µg/mL | neutralization IC80 [31]: 0.08 µg/mL | neutralization MPI [31]: 100
